Measurements as given in paper doi:10.1101/2022.12.21.521443 (2022).

Target: S. cerevisiae Pbs2 target peptide (S. cerevisiae, UniProt P08018)
Sequence (P08018 whole entry): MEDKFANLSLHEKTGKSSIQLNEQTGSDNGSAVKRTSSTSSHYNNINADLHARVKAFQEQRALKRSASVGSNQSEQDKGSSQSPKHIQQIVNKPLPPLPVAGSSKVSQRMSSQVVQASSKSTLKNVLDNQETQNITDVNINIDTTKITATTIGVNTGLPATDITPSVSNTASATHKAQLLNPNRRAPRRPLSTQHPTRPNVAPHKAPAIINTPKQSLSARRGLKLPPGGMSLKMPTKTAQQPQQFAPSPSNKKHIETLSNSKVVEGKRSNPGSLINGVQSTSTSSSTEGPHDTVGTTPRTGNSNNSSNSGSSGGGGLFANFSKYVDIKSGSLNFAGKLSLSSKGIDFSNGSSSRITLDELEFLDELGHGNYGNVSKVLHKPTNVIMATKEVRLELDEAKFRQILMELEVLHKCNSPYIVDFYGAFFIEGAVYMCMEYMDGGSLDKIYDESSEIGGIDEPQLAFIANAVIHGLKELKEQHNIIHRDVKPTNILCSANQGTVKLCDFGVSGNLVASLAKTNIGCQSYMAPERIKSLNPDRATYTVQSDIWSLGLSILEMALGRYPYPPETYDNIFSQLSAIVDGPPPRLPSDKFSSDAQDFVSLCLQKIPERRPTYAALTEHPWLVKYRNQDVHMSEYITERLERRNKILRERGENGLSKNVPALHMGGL

B1: wild-type S. cerevisiae Sho1 SH3 domain (domain or fragment)
chain: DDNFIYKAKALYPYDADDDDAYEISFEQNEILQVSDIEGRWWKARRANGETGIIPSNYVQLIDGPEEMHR
  Kd: 3000 nM
